± gives the uncertainty stated by the source.
Test: protein stability index of a GFP-peptide fusion (yeast GPS) (PSI 1-4); higher = more stable; sorted into four equal gates, so the index is relative within each strain
In short: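 Yeast carrying a pooled library were grown to mid-log phase in leucine-free medium. Each library plasmid expresses Cherry and has a tiled 17-residue yeast protein peptide fused downstream of GFP. Cells were sorted into four equal gates by GFP/Cherry ratio, and plasmids from each gate were PCR-amplified, Illumina-sequenced and assigned to strains by barcode. Summing, across gates, the read frequency times the gate number gave each peptide's protein stability index.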

Sequence | protein stability index (doa10∆) | protein stability index (pdr5∆) | protein stability index (san1∆) | protein stability index (ubr1∆)
VPSAKPLILTPPQLANQ [SNF11] | 2.63 ± 0.049 | 2.26 ± 0.052 | 2.64 ± 0.052 | 2.03 ± 0.033
QRYVKSVKSVKFPTRKI [RPC34] |  |  | 3.26 ± 0.11 | 
VEKGVNPTKSKEILDNI [ECM29] | 3.26 ± 0.14 | 3.5 ± 0.12 | 3.37 ± 0.25 | 3.62 ± 0.14
LRLGRGINPNTFRIFHN [YDL088C/ASM4] | 2.39 ± 0.062 | 1.88 ± 0.071 | 1.86 ± 0.11 | 1.65 ± 0.038
ELLANKCPLLVEVDITL [GRR1] | 1.44 ± 0.06 | 1.58 ± 0.047 | 1.59 ± 0.082 | 1.47 ± 0.041
HGMSVDPRHIQLLGDVM [RPO31] | 2.73 ± 0.057 | 2.82 ± 0.062 | 2.85 ± 0.049 | 2.98 ± 0.04
ILKDLIYRGVLNDENSD [SMC1] | 1.81 ± 0.059 | 2.18 ± 0.076 | 1.92 ± 0.13 | 2.21 ± 0.066
NEQLTLLSKKHGQLKLS [RPN5] | 1.6 ± 0.066 | 2.34 ± 0.062 | 1.83 ± 0.081 | 2.4 ± 0.079
KLNQKYDIVKFLTVSKL [GRR1] | 1.76 ± 0.037 | 1.99 ± 0.03 | 2.06 ± 0.052 | 2.04 ± 0.026
EHLDCMNFISKEEFIMM [PCI8] |  |  |  | 3.17 ± 0.16
ASLADVMSIESLVEVVF [FAS1] | 2.89 ± 0.08 | 2.18 ± 0.067 | 1.78 ± 0.091 | 2.97 ± 0.062
YESIATYASVTGLFTLE [RPN7] |  |  |  | 1.96 ± 0.29
NYPQDEINAVFNELCDP [POP1] | 2.84 ± 0.059 | 3.04 ± 0.051 | 2.9 ± 0.057 | 3.07 ± 0.056
ASTGSGKTLAFVIPILI [PRP28] | 1.47 ± 0.069 | 1.29 ± 0.079 | 1.48 ± 0.17 | 3.09 ± 0.1
TGGLFGAKPAGSTGGLG [YGL172W/NUP49] | 3.39 ± 0.13 | 3.42 ± 0.24 | 3.23 ± 0.1 | 3.54 ± 0.07
TAEINCFMHLLVQLFLW [RPN3] | 1.77 ± 0.063 | 2.05 ± 0.051 | 1.68 ± 0.14 | 2.73 ± 0.072
SQHKKILEELDFVRNEL [SMC3] | 3.35 ± 0.14 | 3.09 ± 0.096 | 3.2 ± 0.08 | 3.01 ± 0.057
KPNNTANTGGGLFGANS [YGL172W/NUP49] | 3.16 ± 0.14 | 3.28 ± 0.089 | 3.03 ± 0.072 | 3.08 ± 0.089
MSGRGKGGKGLGKGGAK [HHF1] | 3.69 ± 0.29 | 3.56 ± 0.27 | 3.61 ± 0.097 | 3.58 ± 0.074
YQGVYSMGSILLSFVLG [YML031W/NDC1] | 2.29 ± 0.074 | 2.14 ± 0.11 | 2.58 ± 0.11 | 2.44 ± 0.12
EIKKMIITNINAIFLSS [YCG1] | 2.49 ± 0.11 | 1.94 ± 0.088 | 1.8 ± 0.081 | 1.81 ± 0.12
FATTKAECISLICSIGL [ECM29] | 1.5 ± 0.059 | 1.97 ± 0.056 | 1.65 ± 0.13 | 1.77 ± 0.05
ENHNGQSISNENDVKPI [SWI3] | 2.07 ± 0.054 | 1.83 ± 0.051 | 2.48 ± 0.069 | 2.48 ± 0.045
IYDFITLFSSIEPQVIN [ECM29] | 1.61 ± 0.07 | 2 ± 0.061 | 1.72 ± 0.18 | 2.08 ± 0.039
GNTVVDGEGKVDSISLH [YCG1] | 3.54 ± 0.3 | 3.53 ± 0.23 |  | 
TMTISHLLLGFQVSNVI [YJL039C/NUP192] | 1.41 ± 0.038 | 1.72 ± 0.039 | 1.75 ± 0.06 | 1.77 ± 0.034
LEGETDPLRIAMKELAE [RPO26] | 3.49 ± 0.21 | 3.34 ± 0.057 | 3.27 ± 0.1 | 3.36 ± 0.15
RAFQKQPHIFNNPKVKT [RPS11A] | 2.33 ± 0.052 | 2.48 ± 0.043 | 2.59 ± 0.044 | 2.21 ± 0.028

Reference: the supplement of paper PMC9732359
